This assay addresses human UbcH5c, full-length (aa 1-147) (human) (UniProt P61077). Description: ITC. In general terms: Isothermal titration calorimetry measures the heat released or taken up as one component is titrated into another.

In general, Kd refers to the free concentration of one partner at which half of the binding sites on the other are occupied at equilibrium, for simple one-to-one binding. What is called stoichiometry N is the number of molecules, sites or subunits per partner or assembly.

Regarding “human E4B U-box domain (aa 1208-1302) (from UniProt O95155 1208-1302) (domain or fragment)”, the equilibrium dissociation constant (Kd) was 67.1 µM, the dH is 12.1 kJ/mol and the stoichiometry N came out at 0.99.
